Test results taken from publication PMC10454913, “Neurohypophysial and paracrine vasopressinergic signaling regulates aquaporin trafficking to hydrate marine teleost oocytes” (Frontiers in Endocrinology, 2023).
Ends that are not written are not given here.

Columns and labels:
seabream Oxtrb = seabream Oxtrb (Sparus aurata, UniProt R9WVY7); assay: Activation of seabream Oxtrb in transfected HEK293T cells (pCRE-luc / pSRE-luc reporters, Fluo-4 AM Ca2+); format: cell-based, gilthead seabream (Sparus aurata)
[1] = test system: X. laevis oocytes expressing the seabream Oxtrb and Aqp1aa; conditions: not told

Substance: CYISNCPIG-NH2 (ends and bridges not checked) [Oxt]
- pCRE-mediated luciferase activity (cAMP) (seabream Oxtrb; HEK293T cells expressing Oxtrb): did not induce measurable increases
- pSRE-induced luciferase activity (PKC activation) (seabream Oxtrb; HEK293T cells expressing Oxtrb, 10^-12 to 10^-5 M): concentration-dependent increase
- intracellular Ca2+ concentration ([Ca2+]i) (seabream Oxtrb; HEK293T cells expressing Oxtrb, Fluo-4 AM): concentration-dependent increase
- EC50 (seabream Oxtrb; Oxt on Oxtrb, HEK293T, read-out: approximate EC50 on cognate receptor): ~0.01 µM
- oocyte permeability (P f) and channel accumulation in the plasma membrane [1]: reduction of oocyte permeability
